The source of these data is patent US8785391B2, “Compound and method for treatment of alzheimer's disease and familial dementia” (Alphabeta AB, priority 2010, dated 2014).

Data set [1] addresses T1, Aβ1-40 (Homo sapiens, UniProt P05067).
T1 construct: made in house; host or cells: E. coli
The experiment in a line: Thioflavin T fluorescence of Aβ1-40 aggregation (Example 3). The format is biochemical. The settings on record: 25 μM Aβ1-40, Aβ/Bri2(90-236) molar ratios 1:1, 2:1, 10:1, 37° C., pH 7.0, 24 h period studied. The procedure:
25 μM of Aβ1-40 (SEQ ID NO: 11) was incubated with or without recombinant Bri2(90-236) (SEQ ID NO: 2) in 20 mM phosphate buffer, pH 7.0 at 37° C. for 48 h, with 200 rpm agitation, at Aβ/Bri2(90-236) molar ratios of 1:1, 2:1, or 10:1. Aβ1-40 was dissolved in 100% DMSO to 250 μM stock solution, which was diluted to working concentrations. For Thioflavin T (ThT) fluorescence measurements, 10 μl aliquots were removed at different time points, 10 μM ThT (Aldrich) added, and fluorescence was measured with a […] fluorescence plate reader (GE Healthcare), emission wavelength is 480 nm, excitation wavelength 440 nm. Measurements of ThT were done in duplicates.

The target of data set [2] is T1, Aβ1-40. Kind of data set: ESI-MS binding of Bri2(90-236) to Aβ1-40. The procedure:
Prior to electrospray ionization mass spectrometry (ESI-MS), purified Bri2(90-236) (SEQ ID NO: 2) was rebuffered into 10 mM ammonium acetate, pH 7.0, using spin columns with a 3 kDa cut-off limit (Nanosep, Pall Corp., East Hills, N.Y., USA). Protein and peptides were mixed at 22° C. directly before analysis at a final protein concentration of 20 μM and a final peptide concentration of 50 μM. Data was acquired using a QTOF Ultima API mass spectrometer (Waters, Milford, Mass., USA) equipped with a Z-spray source operated in the positive-ion mode. Samples were introduced via nano-electrospray using metal-plated borosilicate glass capillary needles (Proxeon, Denmark). The source temperature was 80° C., the capillary voltage 1.7 kV, and the cone and RF lens 1 potentials were 100 and 38 V, respectively. […]
ESI-MS binding experiments were conducted to investigate whether Bri2(90-236) can bind the peptides ABri23 and Aβ1-40. For this purpose, Bri2(90-236) was mixed with ABri23, Aβ1-40, or an equimolar mixture of ABri23 and Aβ1-40, to a final concentration of 20 μM Bri2(90-236) and 50 μM of each peptide, and analyzed by ESI-MS. Mass spectra were recorded to investigate the presence and stoichiometry of protein-peptide complexes in the gas phase.

Data set [3] has as its target T1, Aβ1-40. Kind of data set: ThT aggregation of Aβ1-40, Bri2(90-236) added at different time points. It counts as biochemical. The procedure: Aggregation of 8 μM Aβ1-40 was monitored by recording the ThT fluorescence intensity as a function of time in 20 mM Na-phosphate, 200 μM EDTA, 20 μM ThT, 0.02% NaN3, 37° C. with 100 rpm shaking. 800 nM Bri2(90-236) was added from a concentrated stock before the start of the experiment or at different time points after starting the experiment ranging from 0.3 to 11.2 hours.

T1 sequence (P05067 672-711): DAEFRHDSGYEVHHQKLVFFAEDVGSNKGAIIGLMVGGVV

B1: Bri2(90-236): recombinant protein of residues 90-236 of human Bri2 (SEQ ID NO: 2), encompassing the Brichos domain, expressed in E. coli (protein, listed as Homo sapiens)
chain: GIKYIKDDVILNEPSADAPAALYQTIEENIKIFEEEEVEFISVPVPEFADSDPANIVHDFNKKLTAYLDLNLDKCYVIPLNTSIVMPPRNLLELLINIKAGTYLPQSYLIHEHMVITDRIENIDHLGFFIYRLCHDKETYKLQRRET
B1: the “ThT positive aggregates of Aβ1-40” value with Aβ1-40 [1] is reported as “no ThT positive aggregates were found”. Moreover, in the data set with Aβ1-40 [2] (20 μM Bri2(90-236) with 50 μM Aβ1-40 and 50 μM ABri23 (equimolar)), the “Bri2(90-236)/Aβ1-40 complex in competition experiment” value is on record as “only minor signals”. In addition, the “amount of Bri2(90-236)/Aβ1-40 complexes observed” value in the data set with Aβ1-40 [2] (20 μM Bri2(90-236), 50 μM freshly dissolved Aβ1-40 (2.5 fold excess)) is “Only small amounts”. In addition, the “effect on Aβ1-40 aggregation process” value with Aβ1-40 [3] (8 μM Aβ1-40, 800 nM Bri2(90-236) added anywhere during the lag time) was “can be delayed”; with Aβ1-40 [3] (8 μM Aβ1-40, 800 nM Bri2(90-236) added at the end of the transition), “no effect is seen”; with Aβ1-40 [3] (8 μM Aβ1-40, 800 nM Bri2(90-236) added close to the mid point of the transition) it was “reduce its speed and progress at lower rate”; with Aβ1-40 [3] (8 μM Aβ1-40, 800 nM Bri2(90-236) added during the early part of the sigmoidal transition) it was “appears to halt with no further growth of the ThT positive aggregates”.
